{
  "source": "patent US20070131547A1",
  "binders": {"B1": {"name": "His-sceADH-Fos (alcohol dehydrogenase derived from Saccharomyces cerevisiae, His tag, Fos association site fused at the C-terminal side) (enzyme)", "chain": "MGSSHHHHHHSQDPPSQVIPEKQKAIVFYETDGKLEYKDVTVPEPKPNEILVHVKYSGVCHSDLHAWHGDWPFQLKFPLIGGHEGAGVVVKLGSNVKGWKVGDFAGIKWLNGTCMSCEYCEVGNESQCPYLDGTGFTHDGTFQEYATADAVQAAHIPPNVNLAEVAPILCAGITVYKALKRANVIPGQWVTISGACGGLGSLAIQYALAMGYRVIGIDGGNAKRKLFEQLGGEIFIDFTEEKDIVGAIIKATNGGSHGVINVSVSEAAIEASTRYCRPNGTVVLVGMPAHAYCNSDVFNQVVKSISIVGSCVGNRADTREALDFFARGLIKSPIHLAGLSDVPEIFAKMEKGEIVGRYVVETSKKLGGGSGGGSLTDTLQAETDQLEDKKSALQTEIANLLKEKEKLEFILAAY"}, "B2": {"name": "His-lplLDH-Dzip1 (lactic acid dehydrogenase derived from Lactobacillus plantarum, His tag, Dzip1 association site fused at the C-terminal side) (enzyme)", "chain": "MGSSHHHHHHSQDPSSMPNHQKVVLVGDGAVGSSYAFAMAQQGIAEEFVIVDVVKDRTKGDALDLEDAQAFTAPKKIYSGEYSDCKDADLVVITAGAPQKPGESRLDLVNKNLNILSSIVKPVVDSGFDGIFLVAANPVDILTYATWKFSGFPKDRVIGSGTSLDSSRLRVALGKQFNVDPRSVDAYIMGEHGDSEFAAYSTATIGTRPVRDVAKEQGVSDEDLAKLEDGVRNKAYDIINLKGATFYGIGTALMRISKAILRDENAVLPVGAYMDGQYGLNDIYIGTPAVIGGTGLKQIIESPLSADELKKMQDSAATLKKVLNDGLAELENKKLGGGSGGGSGGGSTVAQLEEKVKTLRAQNYELKSRVQRLREQVAQLA"}, "B3": {"name": "His-busGDH-Fos (glucose dehydrogenase derived from Bacillus subtilis, His tag, Fos association site fused at the C-terminal side) (enzyme)", "chain": "MGSSHHHHHHSQDPYPDLKGKVVAITGAASGLGKAMAIRFGKEQAKVVINYYSNKQDPNEVKEEVIKAGGEAVVVQGDVTKEEDVKNIVQTAIKEFGTLDIMINNAGLENPVPSHEMPLKDWDKVIGTNLTGAFLGSREAIKYFVENDIKGNVINMSSVHEVIPWPLFVHYAASKGGIKLMTETLALEYAPKGIRVNNIGPGAINTPINAEKFADPKQKADVESMIPMGYIGEPEEIAAVAAWLASKEASYVTGITLFADGGMTQYPSFQAGRGKLGGGSGGGSLTDTLQAETDQLEDKKSALQTEIANLLKEKEKLEFILAAY"}, "B4": {"name": "His-ppuMDH-Dzip1 (malic acid dehydrogenase derived from Pseudomonas putida, His tag, Dzip1 association site fused at the C-terminal side) (enzyme)", "chain": "MGSSHHHHHHSQDPSDLKTAALEYHAQPRPGKLSVELSKPTATARDLALAYSPGVAEPVREIGRDPELAYKYTGKGNLVAVISDGTAILGLGDLGPLASKPVMEGKGVLFKRFAGIDVFDIEVESESPQAFIDTVRRISITFGGINLEDIKAPECFEIERTLIEQCDIPVFHDDQHGTAIVTAAGMINALEIAGKKLEEAKIVCLGAGAAAISCMKLLVSMGAKVENIFMIDRSGVIHAGRDDLNQYKAQFAHATDKRTLADALDGADVFVGLSGPNLLSPEGLKSMAANPIVFACSNPDPEISPELAHATRNDVIMATGRSDYPNQVNNVLGFPFIFRGALDVRAKRINEEMKIAAAIALKDLAKLPVPKEVCEAYGVEGLEFGREYIIPKPLDARLITVVSDAVAKAAIESGVATLPYPKHYPLTSVDEVFNGKLGGGSGGGSGGGSTVAQLEEKVKTLRAQNYELKSRVQRLREQVAQLA"}, "B5": {"name": "His-sceADH-Dzip1 (alcohol dehydrogenase derived from Saccharomyces cerevisiae, His tag, Dzip1 association site fused at the C-terminal side) (enzyme)", "chain": "MGSSHHHHHHSQDPPSQVIPEKQKAIVFYETDGKLEYKDVTVPEPKPNEILVHVKYSGVCHSDLHAWHGDWPFQLKFPLIGGHEGAGVVVKLGSNVKGWKVGDFAGIKWLNGTCMSCEYCEVGNESQCPYLDGTGFTHDGTFQEYATADAVQAAHIPPNVNLAEVAPILCAGITVYKALKRANVIPGQWVTISGACGGLGSLAIQYALAMGYRVIGIDGGNAKRKLFEQLGGEIFIDFTEEKDIVGAIIKATNGGSHGVINVSVSEAAIEASTRYCRPNGTVVLVGMPAHAYCNSDVFNQVVKSISIVGSCVGNRADTREALDFFARGLIKSPIHLAGLSDVPEIFAKMEKGEIVGRYVVETSKKLGGGSGGGSGGGSTVAQLEEKVKTLRAQNYELKSRVQRLREQVAQLA"}, "B6": {"name": "His-busGDH-Dzip1 (glucose dehydrogenase derived from Bacillus subtilis, His tag, Dzip1 association site fused at the C-terminal side) (enzyme)", "chain": "MGSSHHHHHHSQDPYPDLKGKVVAITGAASGLGKAMAIRFGKEQAKVVINYYSNKQDPNEVKEEVIKAGGEAVVVQGDVTKEEDVKNIVQTAIKEFGTLDIMINNAGLENPVPSHEMPLKDWDKVIGTNLTGAFLGSREAIKYFVENDIKGNVINMSSVHEVIPWPLFVHYAASKGGIKLMTETLALEYAPKGIRVNNIGPGAINTPINAEKFADPKQKADVESMIPMGYIGEPEEIAAVAAWLASKEASYVTGITLFADGGMTQYPSFQAGRGKLGGGSGGGSGGGSTVAQLEEKVKTLRAQNYELKSRVQRLREQVAQLA"}, "B7": {"name": "His-pfuGDH-Fos (glucose dehydrogenase derived from Pyrococcus furiosus, His tag, Fos association site fused at the C-terminal side) (enzyme)", "chain": "MGSSHHHHHHSQDPNILITASSRGIGFNVAKELLKKGHRVVISSSNEKNLEKALEELKEYEKVYPIKADLSKKEEIKNMVEKAWEILGKIDVLVWNAPNVKCEPCMIHELDYEDWVEGALLHIIAPGYLTTLLLNKWLKNNTRGIIIYLSSASVLEPMPPLLLADSTRAGLIQLAKGISRAYGKRGIRAYTVLLGSFDTPGARENLRRLAEKRGVDPEELWKKEVIERTPLQRTGKWEELGELIEFLLSDNAEYMLGSTILFDGAMTRSVLLKLGGGSGGGSLTDTLQAETDQLEDKKSALQTEIANLLKEKEKLEFILAAY"}},
  "assay_in_all_cases": "cell-based or functional assay",
  "key": {"[1]": {"target": "ppuDp-Jun (diaphorase derived from Pseudomonas putida, Jun association site fused at the C-terminal side) (Pseudomonas putida)"}, "[2]": {"target": "goxDp-Dzip2 (diaphorase derived from Gluconobacter oxydans, Dzip2 association site fused at the C-terminal side) (Gluconobacter oxydans)"}, "[3]": {"target": "T1, goxALDH-Dzip2 (aldehyde dehydrogenase derived from Gluconobacter oxydans, Dzip2 association site fused at the C-terminal side) (Gluconobacter oxydans)", "T1 sequence": "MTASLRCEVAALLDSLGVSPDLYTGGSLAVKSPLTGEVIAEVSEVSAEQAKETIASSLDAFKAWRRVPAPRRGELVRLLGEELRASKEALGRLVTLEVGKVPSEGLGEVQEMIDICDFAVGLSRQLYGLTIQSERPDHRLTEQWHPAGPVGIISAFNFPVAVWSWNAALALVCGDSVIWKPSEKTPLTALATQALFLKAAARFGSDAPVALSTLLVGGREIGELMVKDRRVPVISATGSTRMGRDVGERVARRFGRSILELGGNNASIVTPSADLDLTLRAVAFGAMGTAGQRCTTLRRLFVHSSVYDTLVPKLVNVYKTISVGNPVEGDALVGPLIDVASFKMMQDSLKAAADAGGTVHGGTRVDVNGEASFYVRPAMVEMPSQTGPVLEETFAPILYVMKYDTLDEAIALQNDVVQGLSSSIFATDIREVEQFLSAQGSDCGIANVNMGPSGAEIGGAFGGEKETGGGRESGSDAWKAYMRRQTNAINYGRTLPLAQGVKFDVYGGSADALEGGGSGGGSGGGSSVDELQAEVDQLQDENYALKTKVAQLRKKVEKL"}, "[4]": {"target": "T2, ecoISO-Dzip2 (xylose isomerase derived from Escherichia coli, Dzip2 association site fused at the C-terminal side) (Escherichia coli) (UniProt B1X8I1)", "T2 sequence": "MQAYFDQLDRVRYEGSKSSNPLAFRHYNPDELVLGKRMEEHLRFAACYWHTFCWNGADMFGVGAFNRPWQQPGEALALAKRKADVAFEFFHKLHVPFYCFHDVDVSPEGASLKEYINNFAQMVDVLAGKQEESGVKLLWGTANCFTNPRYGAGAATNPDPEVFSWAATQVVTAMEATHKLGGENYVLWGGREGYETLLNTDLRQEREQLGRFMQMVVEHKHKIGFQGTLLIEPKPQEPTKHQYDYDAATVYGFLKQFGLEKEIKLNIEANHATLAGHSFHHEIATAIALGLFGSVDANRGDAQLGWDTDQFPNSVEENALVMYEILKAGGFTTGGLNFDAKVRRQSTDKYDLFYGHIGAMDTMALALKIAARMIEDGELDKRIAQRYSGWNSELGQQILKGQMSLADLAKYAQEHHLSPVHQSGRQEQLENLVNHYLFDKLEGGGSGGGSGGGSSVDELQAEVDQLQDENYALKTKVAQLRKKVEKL"}, "[5]": {"target": "phoDp-Jun (diaphorase derived from Pyrococcus horikoshii, Jun association site fused at the C-terminal side) (Pyrococcus horikoshii)"}},
  "data": [
    {"binder": "B1", "values": [
      {"measurement": "maximum electric power (alcohol fuel cell)", "setting": "[1]", "value": 80, "unit": "µW/cm^2"},
      {"measurement": "shortcircuit current density (alcohol fuel cell)", "setting": "[1]", "value": 821, "unit": "µA/cm^2"}
    ]},
    {"binder": "B2", "values": [
      {"measurement": "maximum electric power (lactic acid fuel cell)", "setting": "[2]", "value": 121, "unit": "µW/cm^2"},
      {"measurement": "shortcircuit current density (lactic acid fuel cell)", "setting": "[2]", "value": 1330, "unit": "µA/cm^2"}
    ]},
    {"binder": "B3", "values": [
      {"measurement": "maximum electric power (glucose fuel cell)", "setting": "[1]", "value": 101, "unit": "µW/cm^2"},
      {"measurement": "shortcircuit current density (glucose fuel cell)", "setting": "[1]", "value": 988, "unit": "µA/cm^2"}
    ]},
    {"binder": "B4", "values": [
      {"measurement": "maximum electric power (malic acid fuel cell)", "setting": "[2]", "value": 99, "unit": "µW/cm^2"},
      {"measurement": "shortcircuit current density (malic acid fuel cell)", "setting": "[2]", "value": 1030, "unit": "µA/cm^2"}
    ]},
    {"binder": "B5", "values": [
      {"measurement": "maximum electric power (alcohol fuel cell)", "setting": "[3]", "value": 173, "unit": "µW/cm^2"},
      {"measurement": "shortcircuit current density (alcohol fuel cell)", "setting": "[3]", "value": 1620, "unit": "µA/cm^2"}
    ]},
    {"binder": "B6", "values": [
      {"measurement": "maximum electric power (fructose fuel cell)", "setting": "[4]", "value": 101, "unit": "µW/cm^2"},
      {"measurement": "shortcircuit current density (fructose fuel cell)", "setting": "[4]", "value": 1110, "unit": "µA/cm^2"}
    ]},
    {"binder": "B7", "values": [
      {"measurement": "maximum electric power (glucose fuel cell)", "setting": "[5]", "value": 126, "unit": "µW/cm^2"},
      {"measurement": "shortcircuit current density (glucose fuel cell)", "setting": "[5]", "value": 1320, "unit": "µA/cm^2"}
    ]}
  ]
}
